These results are taken from patent US20020086844A1 (Harvard, published 2002).

This assay addresses T1, constitutively expressed nonmitochondrial Hsp70 homolog Hsc70 (human, UniProt P11142 2-646).
T1 construct: Endogenous; used as the control in the co-immunoprecipitation
The experiment in a line: co-immunoprecipitation with hTid-1-specific mAbs, immunoblot for Hsc70. As to the method: FIG. 2C. Endogenous hTid-1L and hTid-1S coimmunoprecipitate with mtHsp70. Immunoprecipitation experiments were performed from U20S cells by using mAbs specific for either hTid-1, mtHsp70, or Hsc70. Immune complexes were analyzed by SDS/PAGE and Western blot with hTid-1-, mtHsp70-, or Hsc70-specific mAbs.
Because hTid-1 proteins have extremely well conserved J domains, we suspected that they may be interacting with the mitochondrial Hsp70 homolog, mtHsp70 (GRP75), which is also localized to the mitochondrial matrix. We performed coimmunoprecipitation-immunoblot experiments by using mAbs specific for hTid-1, mtHsp70, or the constitutively expressed nonmitochondrial Hsp70 homolog Hsc70 as a control. hTid-1-specific mAbs immunoprecipitate endogenous hTid-1L and hTid-1S in complex with mtHsp70 from human U2OS cells. (FIG. 2C).
(In general: A western blot detects proteins with antibodies after separation by electrophoresis.)

T1 sequence (P11142 2-646 limits assumed): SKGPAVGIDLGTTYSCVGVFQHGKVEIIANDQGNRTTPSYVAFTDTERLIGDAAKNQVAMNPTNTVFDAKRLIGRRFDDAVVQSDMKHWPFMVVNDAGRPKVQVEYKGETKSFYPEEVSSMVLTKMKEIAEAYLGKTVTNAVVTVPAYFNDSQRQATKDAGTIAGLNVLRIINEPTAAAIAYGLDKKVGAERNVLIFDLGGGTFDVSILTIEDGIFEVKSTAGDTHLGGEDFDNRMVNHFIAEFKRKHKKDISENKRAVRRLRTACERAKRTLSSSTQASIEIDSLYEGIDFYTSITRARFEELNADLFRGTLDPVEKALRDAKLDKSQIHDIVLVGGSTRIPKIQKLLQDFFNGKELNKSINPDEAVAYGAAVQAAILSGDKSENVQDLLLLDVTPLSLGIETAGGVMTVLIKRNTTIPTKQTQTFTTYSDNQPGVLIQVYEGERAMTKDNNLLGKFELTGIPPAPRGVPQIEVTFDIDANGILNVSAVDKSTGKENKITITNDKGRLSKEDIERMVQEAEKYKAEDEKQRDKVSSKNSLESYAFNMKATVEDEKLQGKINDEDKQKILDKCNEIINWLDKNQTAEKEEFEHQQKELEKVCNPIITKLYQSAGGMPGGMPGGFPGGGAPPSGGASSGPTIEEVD

B1: hTid-1L (other)
chain: VSLTGTKHNPFICTASFHTSAPLAKEDYYQILGVPRNASQKEIKKAYYQLAKKYHPDTNKDDPKAKEKFSQLAEAYEVLSDEVKRKQYDAYGSAGFDPGASGSQHSYWKGGPTVDPEELFRKIFGEFSSSSFGDFQTVFDQPQEYFMELTFNQAAKGVNKEFTVNIMDTCERCNGKGNEPGTKVQHCHYCGGSGMETINTGPFVMRSTCRRCGGRGSIIISPCVVCRGAGQAKQKKRVMIPVPAGVEDGQTVRMPVGKREIFITFRVQKSPVFRRDGADIHSDLFISIAQALLGGTARAQGLYETINVTIPPGTQTDQKIRMGGKGIPRINSYGYGDHYIHIKIRVPKRLTSRQQSLILSYAEDETDVEGTVNGVTLTSSGGSTMDSSAGSKARREAGEDEEGFLSKLKKMFTS
notes: Endogenous protein from human cell lysates; also called long form of human Tid1; 43 kDa TID1 splice variant
B1: the binding result is “no binding”.

B2: hTid-1S (other)
chain: VSLTGTKHNPFICTASFHTSAPLAKEDYYQILGVPRNASQKEIKKAYYQLAKKYHPDTNKDDPKAKEKFSQLAEAYEVLSDEVKRKQYDAYGSAGFDPGASGSQHSYWKGGPTVDPEELFRKIFGEFSSSSFGDFQTVFDQPQEYFMELTFNQAAKGVNKEFTVNIMDTCERCNGKGNEPGTKVQHCHYCGGSGMETINTGPFVMRSTCRRCGGRGSIIISPCVVCRGAGQAKQKKRVMIPVPAGVEDGQTVRMPVGKREIFITFRVQKSPVFRRDGADIHSDLFISIAQALLGGTARAQGLYETINVTIPPGTQTDQKIRMGGKGIPRINSYGYGDHYIHIKIRVPKRLTSRQQSLILSYAEDETDVEGTVNGVTLTSSGKRSTGN
notes: Endogenous protein from human cell lysates; also called short form of human Tid1; 40 kDa TID1 splice variant
Regarding B2, the binding result is “no binding”.
